What follows are substances tested against Fc gamma receptor (FcγR) (assay: cell-based or functional assay).
Obinutuzumab (antibody) was tested, and the mean fold difference in CD107a on CD3-CD56+ NK cells against samples without mAbs, RA was 3.1 fold and the mean fold difference in CD107a on CD3-CD56+ NK cells against samples without mAbs, SLE was 1.8 fold. In the case of “non-glycoengineered, wild type glycosylated OBZ (antibody)”, the mean fold difference in CD107a on CD3-CD56+ NK cells against samples without mAbs, RA was 1.9 fold and the mean fold difference in CD107a on CD3-CD56+ NK cells against samples without mAbs, SLE was 1.4 fold. With rituximab (antibody) the mean fold difference in CD107a on CD3-CD56+ NK cells against samples without mAbs, RA was 1.2 fold and the mean fold difference in CD107a on CD3-CD56+ NK cells against samples without mAbs, SLE was 1.5 fold.

From patent US20250177521A1
